{"source": "patent US8022177B2", "about": "“Peptides and calcium regulation in mammalian cells” (The Board of Trustees of the University of Illinois, priority 2005, dated 2011)", "molecules": {"B1": {"name": "γ6S: rat calcium channel γ6 subunit, short isoform (AF361344), SEQ ID NO:49 (protein, listed as Rattus norvegicus)", "chain": "MMWSNFFMQEEDRRRTAVGRRRAQEQQNLGLTPEREGKIKLGLLVAIVGATLAVLAVGTEFWVELNTYKTNGSAVCEAAHLGLWKVCIKRLWQADVPAGRETCGPAELPGEANCTYFKFFTTGENAHIFQRTTKKGLLLFVSLEVFRHSVRALLQGVNPETPPAPRLAYEYSWSLGCGVGAGLILLLGGVCFLLLTLPSWPWRSLCPKRGGPTA"}, "B2": {"name": "γ1 T12G: γ1 single mutant containing just part of the GXXXA motif (protein, UniProt Q06432 1-222, looked up, variant T12G)", "Voltage-dependent calcium …": "MSQTKMLKVRVGLFCILAGIVLAMTAVVTDHWAVLSPHMEHHNTTCEAAHFGLWRICTKRIPMDDSKTCGPITLPGEKNCSYFRHFNPGESSEIFEFTTQKEYSISAAAIAIFSLGFIILGSLCVLLSLGKKRDYLLRPASMFYAFAGLCILVSVEVMRQSVKRMIDSEDTVWIEYYYSWSFACACAAFILLFLGGLALLLFSLPRMPRNPWESCMDAEPEH"}, "B3": {"name": "γ1 (T12G, I16A): γ1 double mutant containing the complete GXXXA motif in TM1 (protein, UniProt Q06432 1-222, looked up, variant T12G I16A)", "Voltage-dependent calcium …": "B2 Voltage-dependent calcium … with I16A"}}, "assay_type_in_all_cases": "cell-based", "key": {"Cav3.1 [1]": {"target": "T1, Cav3.1 (Homo sapiens, UniProt O43497)", "T1 construct": "expressed in transfected cells; host or cells: HEK-293, stably transfected", "T1 sequence (O43497 whole entry)": "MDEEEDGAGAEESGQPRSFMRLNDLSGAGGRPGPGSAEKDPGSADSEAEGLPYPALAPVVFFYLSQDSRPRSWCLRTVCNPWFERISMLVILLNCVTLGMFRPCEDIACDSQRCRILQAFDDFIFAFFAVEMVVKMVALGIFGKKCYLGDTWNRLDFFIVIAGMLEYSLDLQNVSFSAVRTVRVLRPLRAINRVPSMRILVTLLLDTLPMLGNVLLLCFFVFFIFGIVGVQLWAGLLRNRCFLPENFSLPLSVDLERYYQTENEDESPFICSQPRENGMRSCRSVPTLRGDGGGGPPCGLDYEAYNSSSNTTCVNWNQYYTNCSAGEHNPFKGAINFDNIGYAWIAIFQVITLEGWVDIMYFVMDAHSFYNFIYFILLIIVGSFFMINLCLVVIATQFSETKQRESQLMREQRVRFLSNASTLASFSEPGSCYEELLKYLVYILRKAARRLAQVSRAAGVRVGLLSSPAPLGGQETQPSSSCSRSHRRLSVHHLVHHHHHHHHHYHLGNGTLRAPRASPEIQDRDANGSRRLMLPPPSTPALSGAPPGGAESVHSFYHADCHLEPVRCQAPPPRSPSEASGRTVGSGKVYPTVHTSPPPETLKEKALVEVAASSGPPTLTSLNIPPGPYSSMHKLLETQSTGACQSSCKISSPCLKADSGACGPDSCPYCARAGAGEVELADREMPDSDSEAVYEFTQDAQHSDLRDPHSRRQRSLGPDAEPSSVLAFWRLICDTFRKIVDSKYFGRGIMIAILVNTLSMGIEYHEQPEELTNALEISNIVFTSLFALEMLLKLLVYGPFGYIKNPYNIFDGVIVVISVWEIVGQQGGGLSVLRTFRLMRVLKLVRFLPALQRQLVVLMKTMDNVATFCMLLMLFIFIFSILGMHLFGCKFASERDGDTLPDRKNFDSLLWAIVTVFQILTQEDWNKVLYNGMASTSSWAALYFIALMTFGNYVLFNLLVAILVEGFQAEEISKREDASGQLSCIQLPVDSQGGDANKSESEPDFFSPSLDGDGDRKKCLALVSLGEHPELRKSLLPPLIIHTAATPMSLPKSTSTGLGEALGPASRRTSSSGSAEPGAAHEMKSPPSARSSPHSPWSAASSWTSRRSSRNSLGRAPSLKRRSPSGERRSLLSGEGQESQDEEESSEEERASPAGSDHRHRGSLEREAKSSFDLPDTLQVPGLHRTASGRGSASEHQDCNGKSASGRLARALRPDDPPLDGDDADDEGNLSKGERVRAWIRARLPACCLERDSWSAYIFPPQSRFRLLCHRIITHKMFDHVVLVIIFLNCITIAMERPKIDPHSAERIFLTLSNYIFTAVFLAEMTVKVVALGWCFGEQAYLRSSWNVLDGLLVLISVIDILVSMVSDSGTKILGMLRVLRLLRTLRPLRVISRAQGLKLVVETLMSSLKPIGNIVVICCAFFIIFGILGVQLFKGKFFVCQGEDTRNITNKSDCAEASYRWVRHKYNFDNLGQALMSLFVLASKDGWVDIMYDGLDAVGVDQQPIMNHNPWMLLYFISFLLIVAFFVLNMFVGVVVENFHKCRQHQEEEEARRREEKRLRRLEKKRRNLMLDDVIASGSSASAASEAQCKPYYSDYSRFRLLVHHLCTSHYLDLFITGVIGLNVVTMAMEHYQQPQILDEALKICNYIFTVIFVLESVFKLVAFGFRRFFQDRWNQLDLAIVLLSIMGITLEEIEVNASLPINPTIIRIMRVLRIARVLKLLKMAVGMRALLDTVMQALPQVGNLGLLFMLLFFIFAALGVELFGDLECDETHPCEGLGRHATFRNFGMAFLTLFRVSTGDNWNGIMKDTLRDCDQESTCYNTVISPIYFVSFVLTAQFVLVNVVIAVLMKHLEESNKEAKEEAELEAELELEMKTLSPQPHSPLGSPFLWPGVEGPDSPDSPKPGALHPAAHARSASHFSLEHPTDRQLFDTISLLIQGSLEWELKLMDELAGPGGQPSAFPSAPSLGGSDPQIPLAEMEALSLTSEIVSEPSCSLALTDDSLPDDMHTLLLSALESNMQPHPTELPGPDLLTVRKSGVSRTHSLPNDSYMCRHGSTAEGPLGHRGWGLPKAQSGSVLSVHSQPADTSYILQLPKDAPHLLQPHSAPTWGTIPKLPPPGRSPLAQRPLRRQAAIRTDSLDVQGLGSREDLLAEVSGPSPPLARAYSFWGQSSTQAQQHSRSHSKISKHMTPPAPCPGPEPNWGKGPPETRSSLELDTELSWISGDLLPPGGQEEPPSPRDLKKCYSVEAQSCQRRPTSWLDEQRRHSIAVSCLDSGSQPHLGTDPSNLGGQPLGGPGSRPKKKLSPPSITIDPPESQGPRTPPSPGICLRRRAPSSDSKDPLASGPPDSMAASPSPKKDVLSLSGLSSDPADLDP", "experiment": "Whole-cell patch clamp of Cav3.1 dependent LVA calcium current in HEK-293/Cav3.1 cells transiently transfected with γ subunits (Example 1)", "experimental": "2.3. Transfection. Untransfected HEK-293 cells, HEK-293 cell lines stably transfected with Cav3.1, and HL-1 cells were transiently transfected with vectors containing γ subunit, GFP, and modified CFP cDNAs using Lipofectamine 2000 reagent (InVitrogen) as per the manufacturer's recommendations. HEK-293 cells were grown to 70-80% confluence before transfection. HL-1 cells were grown to 50-75% confluence before transfection.\n2.4. Electrophysiology. Whole-cell calcium currents were recorded using an Axopatch-1 D patch clamp system and Clampex 8.0 software. Pipettes were fabricated from borosilicate glass and had typical resistances of 2-4 MΩ. The pipette solution contained (in mM): 130 NaCl, 10 EGTA, 2 MgCl2, 1 CaCl2, 10 HEPES, 3 Tris-ATP, and either 0.3 Li2GTP or 0.3 Tris-GTP, adjusted to pH 7.4 with NaOH and 280 mOsm with sucrose. The bath solution contained (in mM): 137 NaCl (for HEK-293 experiments) or 120 TEACl (for HL-1 experiments), 1 KCl, 1 MgCl2, 0.33 NaH2PO4, 2 CaCl2 (for HEK-293 experiments) or 5 CaCl2 (for HL-1 experiments), 10 glucose (for HL-1 experiments only), 10 HEPES, and 30 μM TTX (for HEK-293 experiments only), adjusted to pH 7.4 with NaOH (for HEK-293 experiments) or TEAOH (for HL-1 experiments) and 280 mOsm with sucrose. NaCl was used as the major salt in the pipette solution order to eliminate any outward K+ currents.\nRecordings from HEK-293 cells were made 48-96 h posttransfection, at which time expression, as measured by GFP fluorescence, peaked. HL-1 cells were used for recording 24-36 h post-transfection. Current densities in HEK-293/Cav3.1 cell experiments were normalized to control for variation in current expression in the different frozen stocks of stable cell lines used. […] HL-1 experiments were performed using a single stock of cells. All HEK-293 data are from current records in which pipette and whole-cell capacitance were about 100% compensated and series resistance was compensated to >80%. Whole-cell capacitance and series resistance were not compensated for HL-1 recordings as currents were typically <100 pA. Series resistance values were typically <10 MX, and no records were used in which the voltage error (as defined by Ver=Imax×Ra) was greater than 5 mV. The holding potential of all protocols used for HEK-293 cells was −100 mV except for steady-state inactivation protocols where the holding potential was −120 mV. The holding potential for protocols used for HL-1 cells was −90 mV. Current-voltage relationships for all HEK-293 and HL-1 cells were measured using 50 ms test depolarizations. Peak current amplitudes for activation curves were determined by fitting tail currents, elicited by stepping membrane voltage from varying test potentials to −60 mV, with the Boltzman equation. Test potential steps for activation protocols were of varied durations, corresponding to the time to peak of the elicited current. Inactivation curves were determined by fitting peak amplitudes of currents, observed in a test pulse to −20 mV, following 500 ms steps to varying potentials, with the Boltzman equation. Time to peak was determined using the current-voltage protocol described above. Inactivation time constants were determined by fitting the decay phase of currents to an exponential equation and deactivation time constants were determined by fitting the decay phase of tail currents to an exponential equation. […] Currents were recorded at 40 kHz and on-line filtered at either 5 or 10 kHz. In some cases currents were off-line filtered at 1 kHz to further reduce noise. Current/voltage relationships and tail currents were recorded from HEK cells using an on-line P/−4 subtraction procedure. Calcium currents recorded from HL-1 cells were off-line leak subtracted. The average membrane capacitance of untransfected HEK-293 cells in pilot experiments was 12.5±1.4 pF (n=8). […]"}, "Cav3.1 [2]": {"target": "T1, Cav3.1", "experiment": "Whole-cell patch clamp of Cav3.1 LVA current in HEK/Cav3.1 cells transfected with γ6/γ4 chimeric and truncated constructs (Example 2)", "settings": "Table 1 (Example 2)", "experimental": "Transfection—HEK-293 cell lines stably transfected with Cav3.1 were transiently transfected with vectors containing γ subunit cDNAs using Lipofectamine 2000 reagent (Invitrogen) as per the manufacturer's recommendations. HEK-293 cells were grown to 70-80% confluence before transfection.\nElectrophysiology—Whole-cell calcium currents were recorded using an Axopatch-1D patch clamp system and Clampex 8.0 software. Pipettes were fabricated from borosilicate glass and had typical resistances of 2-4 MΩ. The pipette solution contained (in mM): 130 NaCl, 10 EGTA, 2 MgCl2, 1 CaCl2, 10 HEPES, 3 Tris-ATP, and 0.3 Tris-GTP, adjusted to pH 7.4 with NaOH and 280 mOsm with sucrose. The bath solution contained (in mM): 137 NaCl, 1 KCl, 1 MgCl2, 0.33 NaH2PO4, 2 CaCl2, 10 HEPES, and 30 μM TTX, adjusted to pH 7.4 with NaOH and 280 mOsm with sucrose.\nRecordings from HEK-293 cells were made 48-96 hours post-transfection, at which time expression, as measured by GFP fluorescence, peaked. All HEK-293 data is from current records in which pipette and whole-cell capacitance were about 100% compensated and series resistance was compensated to >80%. Series resistance values were typically <10 MΩ (megaohms), and no records were used in which the voltage error (as defined by Ver=Imax×Ra) was greater than 5 mV. The holding potential of all protocols used for HEK-293 cells was −100 mV except for steady-state inactivation protocols where the holding potential was −120 mV. Current-voltage relationships for all HEK-293 cells were measured using 50 ms test depolarizations. Peak current amplitudes for activation curves were determined by fitting tail currents, elicited by stepping membrane voltage from varying test potentials to −60 mV, with the Boltzman equation. Test potential steps for activation protocols were of varied durations, corresponding to the time to peak of the elicited current. Inactivation curves were determined by fitting peak amplitudes of currents, observed in a test pulse to −20 mV, following 500 ms steps to varying potentials, with the Boltzman equation. Time to peak was determined using the current-voltage protocol described above. Inactivation time constants were determined by fitting the decay phase of currents to an exponential equation and deactivation time constants were determined by fitting the decay phase of tail currents to an exponential equation. […] When a double exponential equation was used to fit Cav3.1 tail currents, the magnitude of the fast component was about 10 fold that of the slow component. Currents were recorded at 40 kHz and on-line filtered at 5. In some cases currents were off-line filtered at 1 kHz to further reduce noise. Current-voltage relationships and tail currents were recorded from HEK cells using an on-line P/−4 subtraction procedure. The average membrane capacitance of untransfected HEK-293 cells in pilot experiments was 12.5+/−0.4 pF (n=8).\nStatistical Analysis—All data are reported as mean±SEM and tested for significance by one-way ANOVA. A value of P<0.05 was considered significant and when significant p-values were encountered groups were compared using the Tukey post-hoc test."}, "Cav3.1 [3]": {"target": "T1, Cav3.1", "experiment": "Whole-cell patch clamp of Cav3.1 current in Cav3.1/HEK cells transfected with chimeras, truncations and point mutants (Example 6)", "settings": "FIG. 38, FIG. 41", "experimental": "Transfection. HEK-293 cells stably transfected with either Cav3.1 or Cav3.2 were transiently transfected, at 50% confluency, with a bicistronic vector encoding both GFP and γ subunit cDNA's using Lipofectamine 2000 reagent (Invitrogen, Carlsbad, Calif.) as per the manufacturer's recommendations. Cells were visualized using an Nikon inverted microscope with an FITC filter.\nElectrophysiology. Whole cell Ca^2+ currents were recorded using an Axon Instruments Axopatch-1D amplifier and Clampex 8.0 software. Pipettes were made from boroscillicate glass and had typical resistances of 2-4 Mohms. The pipette solution contained (in mM) 130 NaCl, 10 EGTA, 2 or 5 MgCl2, 1 CaCl2, 10 HEPES, 3 Tris-ATP, and 0.3 Li2GTP. Two different bath solutions were used. The first, used for experiments with γ subunit chimeras, contained (in mM) 130 NaCl, 1 MgCl2, 2 CaCl2, 10 glucose, 10 HEPES, and 0.03 TTX. The second, used for experiments with γ subunit containg point mutations, contained (in mM) 137 NaCl, 1 KCl, 1 MgCl2, 0.33 NaH2PO4, 2 CaCl2, 10 HEPES. All solutions were adjusted to pH 7.4 with NaOH and 280 mOsm with sucrose. No Cl^− currents were evident in any HEK-293 cells line, stably transfected or not, and no attempt was made to eliminate Cl^− currents from data records.\nAll electrophysiological data are from current records in which voltage offset was adjusted, pipette capacitance and whole cell capacitance were compensated and series resistance was compensated to >80%. Currents were filtered at 10 kHz and recorded at 40 kHz. In some cases, current records were off-line filtered at 1K. Current voltage relationships were recorded using an on-line P/−4 subtraction procedure to eliminate linear capacitative and leakage currents. Only recordings with less than 50 pA leakage current were used.\nSeveral different protocols were used to determine the biophysical characteristics of currents in HEK-293 cells. The voltage dependence of activation was determined using “tail” currents. Cells were depolarized from a holding potential of −100 mV to test potentials ranging from −90 mV to +60 mV. Pulse durations varied and corresponded to the time to peak current measured at the corresponding test potentials. Following the conditioning pulse cells were re-polarized to −60 mV and the amplitude of the resulting “tail” current measured. The voltage dependence of inactivation was measured by depolarizing the cells to voltages ranging from −120 mV to 50 mV for 500 ms to inactivate the Ca^2+ channels. After this conditioning step the membrane was returned to the holding potential (−100 mV) for 3 ms and then depolarized a second time to +20 mV for 150 ms during which time the peak current was measured. Time constants for inactivation were measured by fitting a single exponential equation to the decay phase of currents elicited by voltage steps from −50 to +30 mV from a holding potential of −100 mV. Time constants for deactivation were measured by fitting either a single or a double exponential to the decay phase of tail currents.\nTo account for the inherent variation in calcium current density in the HEK-Cav3.1 stable cell line the averaged current density of each test group of cells was normalized to the mean current density of a control group of cells. A minimum of 5 cells (typically 7 to 10) from each group was used to calculate the mean current densities of test and control cells. At least two independent transfections were performed for each test condition. […]"}}, "note": "Numbering of substitutions follows the chain as printed. In names and notes the source's numbering stands."}
{"molecule": "B1", "values": [{"measurement": "Effect on current kinetics or voltage dependency", "setting": "Cav3.1 [1]; HEK-293/Cav3.1", "result": "did not alter current kinetics or voltage dependency"}, {"measurement": "Peak current density, % of control value", "setting": "Cav3.1 [1]; HEK-293/Cav3.1, normalized to adCGI vector control, mean±S.E.M.", "result": "31%±13%"}, {"measurement": "Activation V 0.5", "setting": "Cav3.1 [1]; Table 2", "result": "−36.3 ± 6.2 (n = 4) mV"}, {"measurement": "Activation k", "setting": "Cav3.1 [1]; Table 2", "result": "12.7 ± 1.5 (n = 4)"}, {"measurement": "Deactivation tau @ −100 mV, Fast", "setting": "Cav3.1 [1]; Table 2", "result": "1.20 ± 0.06 (n = 3) ms"}, {"measurement": "Inactivation Tau @ −20 mV", "setting": "Cav3.1 [1]; Table 2", "result": "22.9 ± 0.7 (n = 2) ms"}, {"measurement": "Inactivation V 0.5", "setting": "Cav3.1 [1]; Table 2", "result": "−72.0 ± 5.9 (n = 3) mV"}, {"measurement": "Inactivation k", "setting": "Cav3.1 [1]; Table 2", "result": "5.9 ± 0.7 (n = 3)"}, {"measurement": "Time to peak @ −20 mV", "setting": "Cav3.1 [1]; Table 2", "result": "6.4 ± 0.5 (n = 3) ms"}, {"measurement": "V peak", "setting": "Cav3.1 [1]; Table 2", "result": "−27.0 ± 2.5 (n = 5) mV"}, {"measurement": "Decrease in Cav3.1 current density", "setting": "Cav3.1 [1]; co-expression with Cav3.1 in HEK-293 cells", "result": 69, "unit": "%"}, {"measurement": "Activation V 0.5", "setting": "Cav3.1 [2]", "result": "−36.3 ± 6.2 (n = 4) mV"}, {"measurement": "Activation k", "setting": "Cav3.1 [2]", "result": "12.7 ± 1.5 (n = 4)"}, {"measurement": "Deactivation tau @ −100 mV, Fast", "setting": "Cav3.1 [2]", "result": "1.20 ± 0.06 (n = 3) ms"}, {"measurement": "Inactivation V 0.5", "setting": "Cav3.1 [2]", "result": "−72.0 ± 5.9 (n = 3) mV"}, {"measurement": "Inactivation k", "setting": "Cav3.1 [2]", "result": "5.9 ± 0.7 (n = 3)"}, {"measurement": "Inactivation tau @−20 mV", "setting": "Cav3.1 [2]", "result": "22.9 ± 0.7 (n = 2) ms"}, {"measurement": "Time to peak @ −20 mV", "setting": "Cav3.1 [2]", "result": "6.4 ± 0.5 (n = 3) ms"}, {"measurement": "V peak", "setting": "Cav3.1 [2]", "result": "−27.0 ± 2.5 (n = 5) mV"}]}
{"molecule": "B2", "values": [{"measurement": "Effect on Cav3.1 calcium current density", "setting": "Cav3.1 [3]", "result": "no effect"}]}
{"molecule": "B3", "values": [{"measurement": "Effect on Cav3.1 calcium current density", "setting": "Cav3.1 [3]", "result": "significantly inhibited"}]}
